Experimental data as given in article PMC5790919, “UDP-Glucuronic Acid Transport Is Required for Virulence of Cryptococcus neoformans” (mBio, 2018).

System: O=C(O)[C@H]1O[C@H](OP(=O)(O)OP(=O)(O)OC[C@H]2O[C@@H](n3ccc(=O)[nH]c3=O)[C@H](O)[C@@H]2O)[C@H](O)[C@@H](O)[C@@H]1O
Assay: cells, lysate or membranes
Conditions: proteoliposomes preloaded with 10 mM UMP (antiport), 2 min uptake; transport; kcat printed as turnover rate

Substance: Uut1 (Cryptococcus neoformans H99)
- Km: 0.6 ± 0.1 µM
- kcat: 0.08 s⁻¹
